Tests used:
[1] = target: T1, fluorogenic peptide substrate decanoyl-LSSPAY(NO2)A-ADK(abz)PD
T1 chain: LSSPAYAADKPD

[2] = target: T2, fluorogenic peptide substrate decanoyl-LTPTAY(NO2)A-ASK(abz)DD
T2 chain: LTPTAYAASKDD

B1: Full length His-tagged S. aureus SPase (protein)
chain: MKKELLEWIISIAVAFVILFIVGKFIVTSYTIKGESMDPTLKDGERVAVNIIGYKTGGLEKGNVVVFHANKNDDYVKRVIGVPGDKVEYKNDTLYVNGKKQDEPYLNYNLKHKQGDYITGTFQVKDLPNANPKSNVIPKGKYLVLGDNREVSKDSRAFGLIDEDQIVGKVSFRFWPFSEFKHNFNPENTKN
second order rate constant (Kcat/Km) of substrate cleavage [1]: 10^5 M^-1 s^-1 | second order rate constant (Kcat/Km) of substrate cleavage [2]: 10^5 M^-1 s^-1
